Laboratory results taken from publication PMC11933844, “Autosuppression of MdNAC18.1 endowed by a 61‐bp promoter fragment duplication delays maturity date in apple”.

T1: MdNAC72 (UniProt A0A498KB81 69-407)
T1 sequence: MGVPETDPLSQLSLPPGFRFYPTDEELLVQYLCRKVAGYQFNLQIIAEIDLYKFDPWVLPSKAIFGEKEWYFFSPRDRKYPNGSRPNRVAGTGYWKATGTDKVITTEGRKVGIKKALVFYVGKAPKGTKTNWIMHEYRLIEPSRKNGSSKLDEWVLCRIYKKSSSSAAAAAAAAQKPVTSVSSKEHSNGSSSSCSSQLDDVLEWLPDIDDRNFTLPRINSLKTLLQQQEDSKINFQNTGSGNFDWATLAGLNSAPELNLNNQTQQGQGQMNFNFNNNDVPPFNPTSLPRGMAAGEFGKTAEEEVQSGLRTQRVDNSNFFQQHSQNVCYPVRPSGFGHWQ

B1: MdACO1-like promoter probe NACBS1 (dsDNA)
DNA 1: TCAAGTACCATAACTACACGTAACTTGCAAAGTTCC
DNA 2: GGAACTTTGCAAGTTACGTGTAGTTATGGTACTTGA
B2: MdACO1-like promoter probe mutant (dsDNA)
DNA 1: TCAAGTACCATAACAAAAAATAACTTGCAAAGTTCC
DNA 2: GGAACTTTGCAAGTTATTTTTTGTTATGGTACTTGA
B3: MdACS1 promoter probe NACBS5 (dsDNA)
DNA 1: GTACACTTATAATCCCCACGCAAGTTTGTAGGTAAT
DNA 2: ATTACCTACAAACTTGCGTGGGGATTATAAGTGTAC
B4: MdMYC2 promoter probe NACBS1 (dsDNA)
DNA 1: TCTGGGATCCTGGTTTCACGGGTTTTCGAGGTTTTC
DNA 2: GAAAACCTCGAAAACCCGTGAAACCAGGATCCCAGA
B5: MdNAC72 promoter probe NACBS1 (dsDNA)
DNA 1: TATTGACCCACATTTGCACGTAGCCTTGTAAACTTG
DNA 2: CAAGTTTACAAGGCTACGTGCAAATGTGGGTCAATA
B6: MdACS1 promoter probe mutant (dsDNA)
DNA 1: GTACACTTATAATAAAAAAACAAGTTTGTAGGTAAT
DNA 2: ATTACCTACAAACTTGTTTTTTTATTATAAGTGTAC
B7: MdNAC18.1 P promoter probe (CTAAC) (dsDNA)
DNA 1: GACATACAATGTTCTGATTCGTATTCTAACACTTAA
DNA 2: TTAAGTGTTAGAATACGAATCAGAACATTGTATGTC
B8: MdNAC18.1 P promoter probe mutant (dsDNA)
DNA 1: GACATACAATGTTCTGATTCGTATGAGATAACTTAA
DNA 2: TTAAGTTATCTCATACGAATCAGAACATTGTATGTC

Experiments:
MdNAC18.1 = MdNAC18.1 (UniProt A0A498K6T8 1-364); assay: EMSA; Beyotime Chemiluminescent EMSA Kit GS009; buffer, salt, pH and temperature not stated; details: protein: recombinant, tags: His (pET32A), chain copies: 2, blunt
MdNAC18.1, sequence (A0A498K6T8 entry or part of it): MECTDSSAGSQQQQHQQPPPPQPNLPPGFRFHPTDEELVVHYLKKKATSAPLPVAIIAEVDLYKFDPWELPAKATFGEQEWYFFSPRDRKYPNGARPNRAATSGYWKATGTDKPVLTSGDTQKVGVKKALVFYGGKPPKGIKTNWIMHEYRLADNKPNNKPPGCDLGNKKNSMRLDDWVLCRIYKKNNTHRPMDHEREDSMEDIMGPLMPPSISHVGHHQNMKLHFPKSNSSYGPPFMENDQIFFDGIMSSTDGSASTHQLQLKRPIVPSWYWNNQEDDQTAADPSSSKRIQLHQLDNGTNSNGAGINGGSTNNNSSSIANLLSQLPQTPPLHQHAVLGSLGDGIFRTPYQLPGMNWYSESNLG

MdNAC72 = target: T1, MdNAC72; assay: as above; details: protein: recombinant; tags: His (pET32A); chain copies: 2; label: 3' biotin; blunt

Row | Binder | binding result (MdNAC18.1; label: 3' biotin) | binding result (MdNAC72) | binding result (MdNAC18.1)
1 | B1 | binds | binds | 
2 | B2 |  |  | no binding
3 | B3 | binds |  | 
4 | B4 |  |  | binds
5 | B5 | binds |  | 
6 | B6 |  |  | no binding
7 | B7 | binds |  | 
8 | B8 |  |  | no binding
